First the molecules themselves.
B1: ZDY28 human monoclonal antibody, IgG1 (antibody, V domains shown)
VH: EVQLVQSGGGVVQPGRSLRLSCAASGFTFSSYGMHWVRQAPGKGLEWVAVISYDGSNKYYADSVKGRFTISRDNSKNTLYLQMNSLRAEDTAVYYCASRSTVVPAAIFAFDIWGQGTMVTVSS
VL: not shown
B2: ZDY95 human monoclonal antibody, IgG1 (antibody, V domains shown)
VH: B1 VH
VL: not shown
B3: ZDY49 human monoclonal antibody, IgG1 (antibody, V domains shown)
VH: B1 VH with Q6E
VL: not shown
B4: ZDY20 human monoclonal antibody, IgG1 (antibody, V domains shown)
VH: EVQLVETGGGLIQPGGSLRLSCAASGITVSSNYMSWVRQAPGKGLEWVSVIYSGGSTYYADSVKGRFTISRDNSKNTLYLQMNSLRAEDTAVYYCAREGLGDGYNAIAGLGFDLWGRGTLVTVSS
VL: DIVMTQSPSSLSASVGDSVTITCQASQDINNYLNWYQQKPGRAPELLINDASNLEAGVPSRFSGSGSGTDFTLTISSLQTEDFATYYCQQYGSLPYTFGQGTKLDIR

By Kd is commonly meant a measure of binding affinity in units of concentration.

Positions count from the first letter of the chain named.

The target in the first test is T1, SARS-CoV-2 spike trimer protein (SARS-CoV-2, Wuhan-Hu-1 reference, UniProt P0DTC2). The test is described as follows: cell-based or functional assay.
B1: the “pseudovirus neutralisation in 293T-ACE2 cells, IC90; blocks S binding to ACE2” value is 7.47 µg/mL.
Still for that read-out and setting: with B2 the figure was 13.3 µg/mL; with B3, 17.1 µg/mL.
For B4, the “neutralisation of live SARS-CoV-2, IC50; blocks S binding to ACE2” value stood at 0.35 µg/mL and the “pseudovirus neutralisation in 293T-ACE2 cells, IC90; blocks S binding to ACE2” value came to 1.24 µg/mL.

For the next test, the target named is T1, SARS-CoV-2 spike trimer protein. The test is described as follows: SPR. (In general: SPR reads the build-up and loss of mass on a sensor chip optically.)
B1 yielded a Kd of 10.2 nM.
The same measure, in the same setting: the figure for B2 is 15 nM.
Regarding B3, the Kd was determined as 24.4 nM.
B4 gave a dissociation constant (Kd) of 8.8 nM.

The record behind these values is PMC7904446 (Cell Host & Microbe, 2021).
